# Results published in the RNAGym collection of RNA variant scans (doi:10.1073/pnas.2313332121).
# Fewer inactive variants are shown than the library holds.
# B1: TPR 5TU (parent)
# chain: GGAUCUUCUCGAUCUAACAAAAAAGACAAAUCUGCCACAAAGCUUGAGAGCAUCUUCGGAUGCAGAGGCGGCAGCCUUCGGUGGCGCGAUAGCGCCAACGUUCUCAACUAUGACACGCAAAACGCGUGCUCCGUUGAAUGGAGUUUAUCAUG
# Variants of: B1
# Test: polymerase ribozyme fitness, log enrichment relative to wild type (log ratio); higher = more active; in vitro selection for triplet polymerase activity
# How it was run: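 Mutant libraries were PCR-built and transcribed for each subunit of a heterodimeric triplet polymerase ribozyme and selected for one round in triplicate at −7 °C, frozen, before gel excision of extended constructs and streptavidin-bead capture. Input and output libraries were Illumina-sequenced, keeping genotypes with ≥10 input reads and ≥1 read per output. Fitness is a logarithmic ratio of genotype to wild-type enrichment, in base 2, using inverse-variance-weighted replicate averages.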
row,Variant,polymerase ribozyme fitness (log ratio)
1,A28G A39U U53A G71A C93A,≤ -4.2
2,A30C A41C C43U U53A C93U C125U A137G,≤ -4.2
3,A28U C95A,-3.41
4,U31C U44A G94C C96G U102G U151C,≤ -4.2
5,U31A C93A U127C,-3.92
6,A28C U134A,≤ -4.2
7,A30G C75G C93U A121G,≤ -4.2
8,A29C A49C U61A A138C,≤ -4.2
9,A30C C87G C99G C132A G140U,≤ -4.2
10,A29U U44A C85G G124A G152A,≤ -4.2
11,A30C U111G C129U G136U,≤ -4.2
12,U31C C93U A120G,0.174
13,A28C A39C C54G U61A C99U,≤ -4.2
14,A28G C38U U61A G67U C85G A98G,-3.98
15,A29U C93G,≤ -4.2
16,U31A,0.37
17,U31C,0.947
18,U31G,0.749
19,A29U C35G G71C,≤ -4.2
20,U31A A97U,-0.316
21,A28G A106G U134G,≤ -4.2
22,U31C A97G U135C U146C,-1.76
23,A29G C95G U127G,≤ -4.2
24,A30C C63U A66C A73U C85A A91C U109G,≤ -4.2

row,Variant,polymerase ribozyme fitness (log ratio)
1,U31A U134A,-1.82
2,A28U A37C U139C U151G,≤ -4.2
3,A28C U33G U77C U90G C93A U148C G152A,≤ -4.2
4,A30U G46U U55G C79A U101G C108G C116U A119G G136U,≤ -4.2
5,A29U A49C G68U A73C A91C C103G,≤ -4.2
6,A29U A52C G68C C96U C99G A121U G126A A150U,≤ -4.2
7,A30G C85U U134C,-3.93
8,A29C A37C G74A A97G U130A,≤ -4.2
9,A29C C51U G83C C95U A137G G143C,≤ -4.2
10,A30C G92A G100C,≤ -4.2
11,A28U U55G C85G G88A A89U C103U G143C,≤ -4.2
12,A29G C69U,≤ -4.2
13,A29C G42U C54G C93G G94C A98U G136A A142G G152U,≤ -4.2
14,U31A A39G G94U,-2.07
15,A28C U31G G50C A52C G74A G80U G86U A121U,≤ -4.2
16,U31A A91G U144G,-1.84
17,A28G A29U,-3.79
18,A30C A91C A98U A119U,≤ -4.2
19,A29G U55G G94A C108A A119G,≤ -4.2
20,A30C C87G U101C,≤ -4.2
21,A29C A47U C76G C79A A97U C99A C125G U134A U144G,≤ -4.2
22,A28U C79G,≤ -4.2
23,A28G A49C C76U G94U A150G,≤ -4.2
24,A30G C38A C57A G58C U78G A97G U101C U102G,≤ -4.2

row,Variant,polymerase ribozyme fitness (log ratio)
1,A28C C57U G84A C96U G124U,≤ -4.2
2,A29C G67C A89U G94U,≤ -4.2
3,A30U G42U A119G A138G,≤ -4.2
4,U31C G92C G126U,0.158
5,A29C A30U G42U C93U C105G U139G,≤ -4.2
6,A30U G94C A121G,-3.43
7,A29U G42U G84U C114A,≤ -4.2
8,A28U G83A C116U U145A,≤ -4.2
9,A28C A52G G88C A89G U101C C105G,≤ -4.2
10,A30C C35U G59A G88U G117A,≤ -4.2
11,A29U A91U,≤ -4.2
12,A29U C96U G136U,≤ -4.2
13,A30C C75G U78G C95G,≤ -4.2
14,A29C C85U,-3.79
15,A29C A37G G65C C75G U77A A97G C118U C123U,≤ -4.2
16,A29U G126A,≤ -4.2
17,A29U C95A,-3.68
18,A29U C95U,-3.54
19,A28U G48C C54U G74U U77A G86U A98U C103G,≤ -4.2
20,A30U U134C,-3.45
21,A30C U53A U78G G84U A137G,≤ -4.2
22,A28U C87A C131G,≤ -4.2
23,A28G G88U G92A A98G G133U U144A,≤ -4.2
24,A29U G141C,-3.49

row,Variant,polymerase ribozyme fitness (log ratio)
1,A30G C95G,-3.11
2,A28C C32G C63U,≤ -4.2
3,U31A C75G C76G C96A U145G,≤ -4.2
4,A30U G86U,≤ -4.2
5,A30G G86A,-3.45
6,A30C A39U U44A U53A C93A,≤ -4.2
7,A28U C36G C85G G94A C131G,≤ -4.2
8,A28U C54A G92U C118U G124U C131A A137U,≤ -4.2
9,A29U C38U G86A,≤ -4.2
10,A30C C87A,≤ -4.2
11,A29C U33A A41U G42A G83C C96U C108G,≤ -4.2
12,C27U U55A G68U C85G,≤ -4.2
13,U31A C95G C125A,-1.34
14,A29C C36G U78C C93G A97G,≤ -4.2
15,U31A A66C G67C G88A G141A U146G,≤ -4.2
16,A28C A30U C35G C87A C105U,-3.84
17,A29C U55A C57U U90G A91C U148G,≤ -4.2
18,A29C U55A C75A C85U G141C,≤ -4.2
19,A29U C103U,≤ -4.2
20,U31A A49C C99G C108G,≤ -4.2
21,A28U G88A G94A C99G C103G U104A A107G,≤ -4.2
22,A30G A52C U53C C93A G100C C132A,≤ -4.2
23,U31A A40G U44G G141C,-4.06
24,A28C A39U G48C G70A G84C C93G G140U,≤ -4.2

row,Variant,polymerase ribozyme fitness (log ratio)
1,A29C A52C C54U U82C U90A G136A,≤ -4.2
2,U31A C96U C99A,-1.23
3,A29U G59A G140A,≤ -4.2
4,A30U C36A C85U G92A C96A,≤ -4.2
5,A30G A66G C108G,≤ -4.2
6,A29U U55A G62C C116G,≤ -4.2
7,A28G U53A G84U G140A,≤ -4.2
8,A28U U33G C43G A47C U55G U56A G84A C87G A106G A107C G133U G140U,≤ -4.2
9,A30G G46C G50U C57U C118G,≤ -4.2
10,A28C C57A A66U G71A C87A U102G A138C,≤ -4.2
11,U31A U55A C95U G128U A137C G143U,≤ -4.2
12,A30U A52G G67U C132U,≤ -4.2
13,A29C U56A G80U A121G,≤ -4.2
14,C27U U56A G84U G86C C114G U145A,≤ -4.2
15,A29G A73U A91G C99U A115U A137U,≤ -4.2
16,A30U U101G,-3.89
17,A28C A49U U56A G65A G70C A91U G94C G117C U151A,≤ -4.2
18,A28U G70U G83C C131U,≤ -4.2
19,U31C C93G,-3.06
20,U31C U55A A97G,1.27
21,A30G A49C C93G,≤ -4.2
22,U31C C95A C96A U134C G143A U145G,-3.45
23,A28U C85A,-4.11
24,U31C C69G C96U G117U C118G,-1.49

row,Variant,polymerase ribozyme fitness (log ratio)
1,A30U U56A G59A G94U C125A U127A U144A,≤ -4.2
2,A29G A41C A47G C85G G92U U104G A137G G141U,≤ -4.2
3,A30U C35U A52C C96U A107G C108G C114A,≤ -4.2
4,A29U G46U G70U U90G C95U A115G G117U A120U,≤ -4.2
5,A30C C79U A91G C114U G136C,≤ -4.2
6,A28G A29U A89C G141C,≤ -4.2
7,A30C C95G A119U C132U,≤ -4.2
8,A30U U45A G94U C131G,≤ -4.2
9,A30G U33G U82C C103A U144A,≤ -4.2
10,A29C A39C U53A A122G C123A U135G U146A,≤ -4.2
11,A28C U45A G88A C96A G100A G143A,≤ -4.2
12,A28G U33G G34U G59C U104G C118U,≤ -4.2
13,A30C G46U G94U G143A,≤ -4.2
14,A30G A138G,≤ -4.2
15,A29U G59U C93U,≤ -4.2
16,A29C C32A,≤ -4.2
17,U31C A49C G94U A121U,≤ -4.2
18,A29U C36A A47C C118U U146C,≤ -4.2
19,A29U A37G C54U C87G C116A,≤ -4.2
20,A30G C35G G59U A113C C131A,≤ -4.2
21,A29U A40G,-4.2
22,A28G G84U,-4.02
23,A28C U144G,-4.03
24,A28C U56A C72U C76G,≤ -4.2

row,Variant,polymerase ribozyme fitness (log ratio)
1,A28C G84A C87G C96G A121U,≤ -4.2
2,A30C C95G C108U C132G G133U,≤ -4.2
3,U31C U45A G70C G92C,≤ -4.2
4,A30C G46U C95G U102G,≤ -4.2
5,A30G C79U G124U U135A,≤ -4.2
6,A29C C35U U53A C76G G92A C99A A122G G124U,≤ -4.2
7,A29G A60C A89G A110U G143A,≤ -4.2
8,A30C A52G A106C U146C,≤ -4.2
9,A29U A40U G68U C69U G92A G140C,≤ -4.2
10,A30U A73U A98U U135G,≤ -4.2
11,A29U U33A U102G A113U U144C,≤ -4.2
12,A28U G67C U77A U90C C95U C105U A142G,≤ -4.2
13,A28U G58C C96A A97G U144A U145G,≤ -4.2
14,A28U A147C U151C G152C,≤ -4.2
15,A29G A52C C57U C93U,≤ -4.2
16,U31C A98U U134A,-1.41
17,U31C G34A C69G C85U U134C,-1.39
18,A29U G71C C93U U109G G124C,≤ -4.2
19,A28U A47C C63G G86C C129A,≤ -4.2
20,U31C C32A G80C G81A A115C C118G G133A,≤ -4.2
21,A30U G88C G92U C95A,≤ -4.2
22,A28G C57A U61A C76A G88A C93U U102G,≤ -4.2
23,A30U G58A C87U U90G U101A A110C G112A G126U,≤ -4.2
